Experimental data as given in patent publication US20180371033A1, “THERAPEUTIC PEPTIDES AND METHODS OF USE THEREOF” (priority 2015, published 2018).

Legend:
[1] = for Blood (densitometric signal in the heart blood) / Brain (percentage of signal in that tissue compared to the signal detected in the heart blood): 14C-radiolabeled peptide, tail vein injection, kidneys ligated, target three hours circulation
Method: This example illustrates the dosing of peptide. […] The experiment was done in duplicates.
A target dosage of 20 nmol of each peptide was administered to separate flank sarcoma A204 tumor bearing Female Harlan athymic nude mice while anesthetized. The dosage was adjusted for whole body autoradiography. […] Some animals died after receiving the peptides, possibly due to complications of the anesthesia and surgical procedure used to ligate the kidneys of each mice, or due to toxic effects of some peptides. The circulation time of each peptide varied from animal-to-animal. […] Inulin was used as a negative control, as this polysaccharide is known to not cross the BBB.
At the end of the dosing period, mice were frozen in a hexane/dry ice bath and then frozen in a block of carboxymethylcellulose. Thin, frozen sections of whole animal sagittal slices that include the brain, tumor, liver, kidney, lung, heart, spleen, pancreas, muscle, adipose, gall bladder, upper gastrointestinal track, lower gastrointestinal track, bone, bone marrow, reproductive track, eye, cartilage, stomach, skin, spinal cord, bladder, salivary gland, and other types of tissues were obtained with a microtome, allowed to dessicate in a freezer, and exposed to phosphoimager plates for about ten days.
These plates were developed, and the signal (densitometry) from each organ was normalized to the signal found in the heart blood of each animal. A signal in tissue darker than the signal expected from blood in that tissue indicates accumulation in a region, tissue, structure or cell. Fluoxetine can cross the blood brain barrier, and is a positive control. Inulin cannot cross the blood brain barrier, and is a negative control. FIG. 2 illustrates ^14C signal in the brain and other tissues for the fluoxetine (top) and inulin (bottom) control groups.
Furthermore, the brain contains approximately 3% blood. Thus when comparing the radioactivity signal per area in blood to that in the brain, a signal in the brain that is much higher than 3% of the signal in blood can be attributed to accumulation of the material in the brain through the BBB. A ratio of at least 10% diffuse signal in brain versus blood was chosen as a reference level for high penetration. The densitometric signal can also indicate high concentration within specification locations in the brain, which can indicate crossing the BBB and/or the blood CSF barrier. […] Numbers for blood indicate the densitometric signal in the heart blood. Numbers for the brain indicate the percentage of signal in that tissue compared to the signal detected in the heart blood.

[2] = assay type: in vivo, mice; conditions: 14C whole body autoradiography
Text: This example describes biodistribution of peptides.
ND indicates the peptide was not detected in that tissue.

[3] = Brain section autoradiography: peptide homing to ventricles and cerebral spinal fluid; assay type: in vivo, Female Harlan athymic nude mice; conditions: 14C signal in sagittal/coronal brain sections, 3 hours after administration
Text: The experiment was done in duplicates.

| Substance | Blood (densitometric signal in the heart blood) [1] | Brain (percentage of signal in that tissue compared to the signal detected in the heart blood) [1] [%] | Adipose (percentage of signal compared to blood in the heart) [2] [%] | Gall bladder (percentage of signal compared to blood in the heart) [2] [%] | Liver (percentage of signal compared to heart blood) [2] [%] | Lower GI (percentage of signal compared to blood in the heart) [2] [%] | Lung (percentage of signal compared to heart blood) [2] [%] | Muscle (percentage of signal compared to blood in the heart) [2] [%] | Reproductive (tract; percentage of signal compared to heart blood) [2] [%] | Salivary gland (percentage of signal compared to heart blood) [2] [%] | Upper GI (percentage of signal compared to blood in the heart) [2] [%] | penetration of the blood brain barrier in comparison with the negative controls ([1]; reference level for high penetration: at least 10% diffuse signal in brain versus blood) | localization of the peptide to specific structures in the brain [3] | Pancreas (percentage of signal compared to blood in the heart) [2] [%] | Spleen (percentage of signal compared to blood in the heart) [2] [%] |
| --- | --- | --- | --- | --- | --- | --- | --- | --- | --- | --- | --- | --- | --- | --- | --- |
| Inulin [reference compound] | 900918901.9 | 3.00 | 5.98 | 18.65 | 126.76 | 10.92 | 242.98 | 19.80 | 129.37 | 27.58 | 382.27 |  |  |  |  |
| GSGVPINVKCRGSRDCLDPCKKAGMRFGKCINSKCHCTP [SEQ ID NO: 34] | 6552245640 | 9.30 | 11.69 | 35.52 | 82.37 | 20.73 | 118.19 | 34.13 | 229.69 | 57.57 | 216.32 | highly penetrate the blood brain barrier | specific structures in the brain, such as ventricles and CSF | 30.35 | 54.28 |
